Data reported in PMC12234153.

Molecular target: STAT3 (UniProt P42227)
Experiment: anti-FLAG co-IP, anti-HA blot
Settings: reference: wild type SMAD2-FLAG; sites S255

- binding against the reference: weaker
Substance: SMAD2 (from UniProt Q15796) S255A
